Test results as given in article doi:10.1101/2025.02.04.636414, “The mechanics of a continuous self-assembling surface-layer aids cell division in an archaeon” (bioRxiv, 2025).

Biological target: the molecule itself
Assay: cryo-EM imaging of cells; unlabelled purified S-layer proteins added to Vps4 E209Q ΔslaA cells at 75°C for 1 h; cells plunge frozen and imaged (Glacios 200 kV); S-layer lattice seen on the cell surface

B1: exogenous unlabelled S-layer protein SlaA, purified from wild-type S. acidocaldarius DSM639 (natural protein, UniProt Q4J6E5 25-1424, looked up)
chain: ITTTALTPPVSAGGIQAYLLTGSGAPASGLVLFVVNVSNIQVSSSNVTNVISTVVSNIQINAKTENAQTGATTGSVTVRFPTSGYNAYYDSVDKVVFVVVSFLYPYTTTSVNIPLSYLSKYLPGLLTAQPYDETGAQVTSVSSTPFGSLIDTSTGQQILGTNPVLTSYNSYTTQANTNMQEGVVSGTLTSFTLGGQSFSGSTVPVILYAPFIFSNSPYQAGLYNPMQVNGNLGSLSSEAYYHPVIWGRALINTTLIDTYASGSVPFTFQLNYSVPGPLTINMAQLAWIASINNLPTSFTYLSYKFSNGYESFLGIISNSTQLTAGALTINPSGNFTINGKKFYVYLLVVGSTNSTTPVEYVTKLVVEYPSSTNFLPQGVTVTTSSNKYTLPVYEIGGPAGTTITLTGNWYSTPYTVQITVGSTPTLTNYVSQILLKAVAYEGINVSTTQSPYYSTAILSTPPSEISITGSSTITAQGKLTATSASATVNLLTNATLTYENIPLTQYSFNGIIVTPGYAAINGTTAMAYVIGALYNKTSDYVLSFAGSQEPMQVMNNNLTEVTTLAPFGLTLLAPSVPATETGTSPLQLEFFTVPSTSYIALVDFGLWGNLTSVTVSAYDTVNNKLSVNLGYFYGIVIPPSISTAPYNYQNFICPNNYVTVTIYDPDAVLDPYPSGSFTTSSLPLKYGNMNITGAVIFPGSSVYNPSGVFGYSNFNKGAAVTTFTYTAQSGPFSPVALTGNTNYLSQYADNNPTDNYYFIQTVNGMPVLMGGLSIVASPVSASLPSSTSSPGFMYLLPSAAQVPSPLPGMATPNYNLNIYITYKIDGATVGNNMINGLYVASQNTLIYVVPNGSFVGSNIKLTYTTTDYAVLHYFYSTGQYKVFKTVSVPNVTANLYFPSSTTPLYQLSVPLYLSEPYYGSPLPTYIGLGTNGTSLWNSPNYVLFGVSAVQQYLGFIKSISVTLSNGTTVVIPLTTSNMQTLFPQLVGQELQACNGTFQFGISITGLEKLLNLNVQQLNNSILSVTYHDYVTGETLTATTKLVALSTLSLVAKGAGVVEFLLTAYPYTGNITFAPPWFIAENVVKQPFMTYSDLQFAKTNPSAILSLSTVNITVVGLGGKASVYYNSTSGQTVITNIYGQTVATLSGNVLPTLTELAAGNGTFTGSLQFTIVPNNTVVQIPSSLTKTSFAVYTNGSLAIVLNGKAYSLGPAGLFLLPFVTYTGSAIGANATAIITVSDGVGTSTTQVPITAENFTPIRLAPFQVPAQVPLPNAPKLKYEYNGSIVITPQQQVLKIYVTSILPYPQEFQIQAFVYEASQFNVHTGSPTAAPVYFSYSAVRAYPALGIGTSVPNLLVYVQLQGISNLPAGKYVIVLSAVPFAGGPVLSEYPAQLIFTNVTLTQ
modifications: highly glycosylated
notes: S-layer protein SlaA, Sulfolobus acidocaldarius DSM639, gene saci2355; endogenous protein extracted from the cell surface; The purified preparation also holds SlaB (mass spectrometry, Coomassie gel); also called unlabelled exogeneous S-layer proteins; purified S-layer proteins
B1: binds.
